Measurements from patent publication US20230139700A1 (BIO THERA SOLUTIONS, published 2023).
Values belong to the binder of their own block, whether it stands above or below them.

Columns and labels:
human OX40 on cells [1] = biological target: T1, human OX40 on cells (human, UniProt P43489 29-277); assay: flow cytometry on Jurkat-hOX40 cells, 100 nM antibody, secondary antibody; parental Jurkat as control
T1 construct: whole, on cells; the cell is named under assay; also called hOX40; Jurkat-hOX40 cells
T1 sequence (looked up): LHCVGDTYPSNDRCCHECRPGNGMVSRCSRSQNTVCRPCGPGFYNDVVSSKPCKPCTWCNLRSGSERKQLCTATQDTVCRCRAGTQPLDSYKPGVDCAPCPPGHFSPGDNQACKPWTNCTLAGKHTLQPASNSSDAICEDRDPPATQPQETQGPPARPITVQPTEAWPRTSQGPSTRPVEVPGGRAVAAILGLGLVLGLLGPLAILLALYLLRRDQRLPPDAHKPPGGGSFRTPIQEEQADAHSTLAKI
Protocol: Jurkat cells overexpressing human OX40 (Jurkat-hOX40 cells) were generated by transfecting pCMV vectors with human OX40 cDNA. Jurkat-hOX40 cells (0.5×10⁶ cells) were incubated with 100 nM experimental antibody in PBS containing 0.1% BSA on ice for 40 min. The cells were then washed twice and incubated with the secondary antibody in PBS containing 0.1% BSA on ice for 25 min. The cells were washed twice and analyzed by flow cytometry on Accuri C6 system (BD Biosciences).

mouse OX40-his = biological target: T2, mouse OX40-his (mouse, UniProt P47741 20-211); assay: ELISA, 10 ng antigen coated, HRP secondary antibody
T2 construct: also called mOX40-his; not shown: his tag
T2 sequence (looked up): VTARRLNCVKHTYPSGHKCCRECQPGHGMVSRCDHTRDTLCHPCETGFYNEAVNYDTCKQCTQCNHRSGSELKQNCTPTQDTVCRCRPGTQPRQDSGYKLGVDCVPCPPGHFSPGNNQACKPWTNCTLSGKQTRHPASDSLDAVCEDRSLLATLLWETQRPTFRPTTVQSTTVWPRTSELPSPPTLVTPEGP

hCD27-FC = biological target: T3, hCD27-FC (human, UniProt P26842 20-191, limits assumed); assay: as above
T3 construct: not shown: Fc part
T3 sequence (looked up): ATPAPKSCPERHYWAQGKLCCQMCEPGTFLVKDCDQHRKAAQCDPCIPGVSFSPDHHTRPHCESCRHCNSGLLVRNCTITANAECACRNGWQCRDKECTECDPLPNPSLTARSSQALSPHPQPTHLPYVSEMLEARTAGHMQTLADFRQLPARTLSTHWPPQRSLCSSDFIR

rhesus monkey OX40-his = biological target: T4, rhesus monkey OX40-his (rhesus monkey); assay: BLI (Fortebio), protein A sensor - antibody - OX40-his (100 nM)
T4 construct: also called Rh-OX40; Rh-OX40-his

human OX40 on cells [2] = biological target: T1, human OX40 on cells; assay: flow cytometry on Jurkat-hOX40 cells, 3-fold dilutions from 50 nM, MFI
Protocol: Antibody-F23-4k and antibody-F23-32k, as well as two control antibodies 11D4 and OX40mAb24 at different concentrations were used to incubate Jurkat-hOX40 cells.

human OX40 on cells [3] = biological target: T1, human OX40 on cells; assay: cell-based or functional assay
cynomolgus monkey OX40 = biological target: T5, cynomolgus monkey OX40 (cynomolgus monkey); assay: ELISA, OX40 coated at 2 µg/mL, antibody 2-fold dilutions
T5 chain: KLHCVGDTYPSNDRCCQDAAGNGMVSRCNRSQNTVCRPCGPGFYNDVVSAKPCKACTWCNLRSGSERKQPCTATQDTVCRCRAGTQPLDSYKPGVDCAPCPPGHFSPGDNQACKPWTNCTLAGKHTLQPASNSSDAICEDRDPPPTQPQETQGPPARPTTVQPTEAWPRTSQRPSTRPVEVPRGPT
Protocol: (§1) The binding capacities of the antibody M-KF for human and cynomolgus monkey OX40 were determined by ELISA. The test method is as follows: human or cynomolgus monkey OX40 was coated on a plate and incubated overnight at 4° C. at a concentration of 2 μg/mL, and then incubated with antibody M-KF at different concentrations for detection. The antibody M-KF was 2-fold diluted in gradient from an initial concentration of 1 μg/mL or 2 μg/mL.

human OX40 on cells [4] = biological target: T1, human OX40 on cells; assay: flow cytometry (MFI) on Jurkat cells overexpressing OX40, antibody titration
Description: (§2) Table 10 illustrates the CDRs of eight full antibodies containing these amino acid mutations, and the rest of the sequences are the same as those of antibody-F23-32K. […] The sequences of the anti-OX40 antibody (antibody M) are shown in Table 12; wherein, the expression cells used for the antibodies above (including antibody M) are CHO-S cells, and the method for preparing the antibody M-KF is as follows: the antibody M was identical to the antibody M-KF in terms of amino acid sequence and was expressed by the CHO cell line in which the fut8 gene was knocked out (the content of fucose in antibody M-KF was about 0%).

[5] = biological target: T6, human OX40 (coated on the plate, Example 8) (human, UniProt P43489 29-214); assay: ELISA, OX40 coated at 2 µg/mL, antibody 2-fold dilutions; human OX40, not cynomolgus monkey OX40
T6 sequence (looked up): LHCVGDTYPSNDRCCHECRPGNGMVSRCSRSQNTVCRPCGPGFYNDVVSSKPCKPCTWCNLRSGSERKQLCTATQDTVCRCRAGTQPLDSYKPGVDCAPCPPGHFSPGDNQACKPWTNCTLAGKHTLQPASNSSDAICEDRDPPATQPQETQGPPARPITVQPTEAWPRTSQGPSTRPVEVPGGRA
Protocol: as §1

human OX40 on cells [6] = biological target: T1, human OX40 on cells; assay: flow cytometry (MFI) on Jurkat cells overexpressing OX40, antibody titration; the unit nM comes from the legend paragraph 95
Description: as §2

binding result (human OX40 on cells [1]): binds
B1: Antibody-F10 (antibody, human IgG1, kappa, V domains shown)
VH: QVQLQESGGGLEKPGRSLRLSCAASGFTFSSYAMHWVRQAPGKGLEWVAVISYDGSNKYYADSVKGRFTISRDNSKNTLYLQMNSLRAEDTAVYYCARELGVYSGYDTPFDYWGQGTLVTVSS
VL: DIQMTQSPSSLSASVGDRITITCRASRDIRDDLAWYQQKPGGAPKLLIYAASTLQSGVPSRFSGSGSGTDFTLTISSLQPEDFATYYCLQDSDYPLTFGGGTKLEIKR
notes: also called antibody No. 1

ELISA (OD value) (mouse OX40-his): 0.17 OD | ELISA (OD value) (hCD27-FC): 0.2 OD | Kd (rhesus monkey OX40-his): 3 nM | EC50 (human OX40 on cells [2]): 5 nM
B2: OX40mAb24 (antibody, V domains shown)
VH: QVQLQESGPGLVKPSQTLSLTCAVYGGSFSSGYWNWIRKHPGKGLEYIGYISYNGITYHNPSLKSRITINRDTSKNQYSLQLNSVTPEDTAVYYCARYKYDYDGGHAMDYWGQGTLVTVSS
VL: DIQMTQSPSSLSASVGDRVTITCRASQDISNYLNWYQQKPGKAPKLLIYYTSKLHSGVPSRFSGSGSGTDYTLTISSLQPEDFATYYCQQGSALPWTFGQGTKVEIKR

NFκB reporter in Jurkat-hOX40-NFκB-2 cells with Raji cells, activation peak against 11D4 (human OX40 on cells [3]): ~2.5 fold | EC50 (cynomolgus monkey OX40): ~0.0352 ng/mL | EC50 (read off the curve) (human OX40 on cells [4]): ~1 nM | EC50 [5]: ~0.034 ng/mL | EC50 (human OX40 on cells [6]): 1.34 nM
B3: Antibody M-KF (antibody, human IgG1, kappa, V domains shown)
VH: QVQLVESGGGVVQPGESLRLSCAASGFTFSSYGMHWVRQAPGKGLEWVAVIWEDGSNQYYADSVKGRFTISRDNSKNTLYLQMNSLRAEDTAVYYCAKDNQDTSPDVGIDYWGQGTLVTVSS
VL: DIQMTQSPSSLSASVGDRVTITCRASQNISPFLNWYQQKPGKAPKLLIYAAVGLQSGVPSRFSGSGSGTDFTLTISSLQPEDFATYYCQQYTDYPLTFGGGTKVEIKR
modifications: fucose content about 0% (expressed in a CHO cell line with the fut8 gene knocked out)
ADCC killing, fold against antibody M (human OX40 on cells [3]): > 2 fold | EC50 of ADCC killing, PBMC effector cells against Jurkat-hOX40 target cells (25:1) (human OX40 on cells [3]): ~1.89 ng/mL
